Key:
[1] = target: receptor binding domain (RBD) of SARS-CoV-2 glycoprotein S, wild-type (SARS-CoV-2, UniProt P0DTC2 319-591); experiment: binding study, chain shuffling (example 19)
RBD mutant K417N [2] = target: T1, RBD mutant K417N (SARS-CoV-2, UniProt P0DTC2 319-591); experiment: binding study, chain shuffling
RBD mutant N501Y = RBD mutant N501Y (SARS-CoV-2, UniProt P0DTC2 319-591); experiment: binding study, chain shuffling
RBD mutant K417N [3] = target: T1, RBD mutant K417N; experiment: binding study, FIG. 46

Measured: binding result

B1: hybrid antibody VL YU536-D04 / VH STE90-C11 (antibody, V domains shown)
VH: QVQLVESGGGLVQPGGSLRLSCAASGLTVSSNYMSWVRQAPGKGLEWVSVIYSGGSTYYADSVKGRFTISRDDSKNTLYLQMNSLRAEDTAVYYCARDVADAFDIWGQGTMVTVSS
VL: DIQLTQSPSSLSASVGDRVTITCRASQGISSYLAWYQQKPGKAPKLLIYAASTLQSGVPSRFSGSGSGTDFTLTISSLQPEDFATYYCQQLNSYPITFGQGTKLEIK
binds: [1] | RBD mutant K417N [2] | RBD mutant N501Y

B2: hybrid antibody VL YU536-D04 / VH YU537-H11 (antibody, V domains shown)
VH: EVQLLESGGGLIQPGGSLRLSCAASGLTVSSNYMSWVRQAPGKGLEWVSVIYSGGSTYYADSVKGRFTISRDNSKNALYLQMNSLRAEDTAVYYCARGESGSPYGMDVWGQGTLVTVSS
VL: DIQLTQSPSSLSASVGDRVTITCRASQGISSYLAWYQQKPGKAPKLLIYAASTLQSGVPSRFSGSGSGTDFTLTISSLQPEDFATYYCQQLNSYPITFGQGTKLEIK
binds: [1] | RBD mutant K417N [2] | RBD mutant N501Y

B3: hybrid antibody VL YU537-H11 / VH STE90-C11 (antibody, V domains shown)
VH: QVQLVESGGGLVQPGGSLRLSCAASGLTVSSNYMSWVRQAPGKGLEWVSVIYSGGSTYYADSVKGRFTISRDDSKNTLYLQMNSLRAEDTAVYYCARDVADAFDIWGQGTMVTVSS
VL: QSVLTQPPSVSAAPGQKVTISCSGSSSNIGNNYVSWYQQLPGTAPKLLIYDTNKRPSGIPDRFSGSKSGTSATLGITGLQTGDEADYYCATWDSSLSVGVFGGGTKLTVL
binds: [1] | RBD mutant K417N [2] | RBD mutant N501Y

B4: hybrid antibody VL STE90-C11 / VH YU536-D04 (antibody, V domains shown)
VH: QVQLVQSGGGLVQPGGSLRLSCAASGLTVSSNYMSWVRQAPGKGLEWVSVIYSGGSTYYADSVKGRFIISRDNSKNTLYLQMNSLRAEDTAVYYCARDLVVMGLDVWGKGTLVTVSS
VL: DIVMTQSPSFLSASVGDRVTITCRASQGISSYLAWYQQKPGKAPKLLIYAASTLQSGVPSRFSGSGSGTEFTLTISSLQPEDFATYYCQQLNSYPPFTFGPGTKVDIK
binds: [1] | RBD mutant N501Y | RBD mutant K417N [3]

B5: hybrid antibody VL STE90-C11 / VH YU537-H11 (antibody, V domains shown)
VH: EVQLLESGGGLIQPGGSLRLSCAASGLTVSSNYMSWVRQAPGKGLEWVSVIYSGGSTYYADSVKGRFTISRDNSKNALYLQMNSLRAEDTAVYYCARGESGSPYGMDVWGQGTLVTVSS
VL: DIVMTQSPSFLSASVGDRVTITCRASQGISSYLAWYQQKPGKAPKLLIYAASTLQSGVPSRFSGSGSGTEFTLTISSLQPEDFATYYCQQLNSYPPFTFGPGTKVDIK
binds: [1] | RBD mutant K417N [2] | RBD mutant N501Y

B6: hybrid antibody VL YU537-H11 / VH YU536-D04 (antibody, V domains shown)
VH: QVQLVQSGGGLVQPGGSLRLSCAASGLTVSSNYMSWVRQAPGKGLEWVSVIYSGGSTYYADSVKGRFIISRDNSKNTLYLQMNSLRAEDTAVYYCARDLVVMGLDVWGKGTLVTVSS
VL: QSVLTQPPSVSAAPGQKVTISCSGSSSNIGNNYVSWYQQLPGTAPKLLIYDTNKRPSGIPDRFSGSKSGTSATLGITGLQTGDEADYYCATWDSSLSVGVFGGGTKLTVL
binds: [1] | RBD mutant K417N [2] | RBD mutant N501Y
